Data: patent US7098001B2, “Polypeptides having dipeptidyl aminopeptidase activity and nucleic acids encoding same” (Novozymes, Inc., priority 1997, dated 2006)

Tests used:
[1] = synergism of aminopeptidase I and dipeptidyl aminopeptidase I on Ala-Phe-Pro-pNA; type: biochemical; settings: 100-fold diluted enzyme alone, over 10 minutes
Protocol: The substrate was prepared by dissolving 2 mg of Ala-Phe-Pro-pNA (Bachem, Torrance, Calif.) in 20 μl of DMSO. Then, 980 μl of 50 mM sodium phosphate buffer pH 7.5 and 100 μl of ethanol were added. In a 96 well microtiter plate, 100 μl of the Ala-Phe-Pro-pNA solution was added to 100 μl of 100-fold diluted aminopeptidase I (Example 12); 100 μl of the Ala-Phe-Pro-pNA solution was added to 100 μl of 100-fold diluted dipeptidyl aminopeptidase I (Example 11); and 100 μl of the Ala-Phe-Pro-pNA solution was added to a mixture of 50 μl of 100-fold diluted aminopeptidase I and 50 μl of 100-fold diluted dipeptidyl aminopeptidase I. The absorbance at 405 nm was measured for 10 minutes.

[2] = temperature stability of dipeptidyl aminopeptidase I; type: physicochemical; settings: for Percent activity relative to 37iC.: 20 minutes, pH 7.5, no substrate, assayed with Ala-Pro-pNA
Protocol: The temperature stability of the dipeptidyl aminopeptidase I was determined using the following protocol: 490 μl of 50 mM sodium phosphate buffer pH 7.5 was preincubated at 37 ? , 45 ? , 55 ? , 60 ? , 65 ? , 70 ? , and 75 ? C for 30 minutes in a 1.7 ml Eppendorf tube. Then 10 μl of purified dipeptidyl aminopeptidase I was added and the sample was then incubated for an additional 20 minutes. The samples were then placed on ice. Once the incubations were completed for all the temperatures, the samples were then assayed for activity using Ala-Pro-pNA as substrate.
The assay was performed by mixing 30 μl of the incubation mixtures for the various temperatures with 200 μl of 2 mg/ml Ala-Pro-pNA in 50 mM sodium phosphate pH 7.5 buffer) at ambient temperature. The absorbance at 405 nm was monitored for 5 minutes.

[3] = activity of the purified enzymes on Ala-Pro-pNA; type: biochemical; settings: purified enzyme; extinction coefficient of 10000
Protocol: A polypeptide of the present invention is added to the proteinaceous substrate in an effective amount conventionally employed in protein hydrolysis processes, preferably in the range of from about 0.1 to about 100,000 dipeptidyl aminopeptidase units (DPAPU) per 100 g of protein, and more preferably in the range of from about 1 to about 10,000 dipeptidyl aminopeptidase units per 100 g of protein. As defined herein, one dipeptidyl aminopeptidase Unit (DPAPU) is the amount of enyzme needed to release 1 micromole of p-nitroanilide per minute from Ala-Pro-p-nitroanilide (Sigma Chemical Co., St. Louis Mo.) under specified conditions.
The sample was then loaded onto a column (XK-26) containing 60 ml of Q-Sepharose Big Beads, which had been pre-equilibrated with 400 ml of 20 mM sodium phosphate pH 7.0 buffer. The column was washed until baseline was reached. […] In a 96 well microtiter plate, 100 μl of the substrate solution was added to 100 μl of Aspergillus oryzae dipeptidyl aminopeptidase I (100 fold diluted in 50 mM sodium phosphate buffer pH 7.5) and the increase in absorbance at 405 nm was measured for 4 minutes using a SpectroMax 340 plate reader (Molecular Devices, Sunnyvale, Calif.). […]
The purified aminopeptidase I was determined to have an activity of 26.822 LAPUs/ml for Leu-pNA using an extinction coefficient of 10,000 for para-nitroaniline at 405 nm. […]

- activity on Ala-Phe-Pro-pNA [1]: no activity
- activity for Ala-Pro-pNA [3]: 11.54 DPAPU/ml
B1: dipeptidyl aminopeptidase I: Recombinant Aspergillus oryzae 1568 (ATCC 20386) dipeptidyl aminopeptidase I, 771 amino acids (SEQ ID NO:2), produced in Fusarium and purified (protein, listed as Aspergillus oryzae)
chain: MKYSKLLLLLVSVVQALDVPRKPHAPTGEGSKRLTFNETVVKQAITPTSRSVQWLSGAEDGSYVYAAEDGSLTIENIVTNESRTLIPADKIPTGKEAFNYWIHPDLSSVLWASNHTKQYRHSFFADYYVQDVESLKSVPLMPDQEGDIQYAQWSPVGNTIAFVRENDLYVWDNGTVTRITDDGGPDMFHGVPDWIYEEEILGDRYALWFSPDGEYLAYLSFNETGVPTYTVQYYMDNQEIAPAYPWELKIRYPKVSQTNPTVTLSLLNIASKEVKQAPIDAFESTDLIIGEVAWLTDTHTTVAAKAFNRVQDQQKVVAVDTASNKATVISDRDGTDGWLDNLLSMKYIGPIKPSDKDAYYIDISDHSGWAHLYLFPVSGGEPIPLTKGDWEVTSILSIDQERQLVYYLSTQHHSTERHLYSVSYSTFAVTPLVDDTVAAYWSASFSANSGYYILTYGGPDVPYQELYTTNSTKPLRTITDNAKVLEQIKDYALPNITYFELPLPSGETLNVMQRLPPGFSPDKKYPILFTPYGGPGAQEVTKRWQALNFKAYVASDSELEYVTWTVDNRGTGFKGRKFRSAVTRQLGLLEAEDQIYAAQQAANIPWIDADHIGIWGWSFGGYLTSKVLEKDSGAFTLGVITAPVSDWRFYDSMYTERYMKTLSTNEEGYETSAVRKTDGFKNVEGGFLIQHGTGDDNVHFQNSAALVDLLMGDGVSPEKLHSQWFTDSDHGISYHGGGVFLYKQLARKLYQEKNRQTQVLMHQWTKKDLEE
- Percent activity relative to 37iC. ([2]; 37 C): 100%
- Percent activity relative to 37iC. ([2]; 45 C): 103%
- Percent activity relative to 37iC. ([2]; 55 C): 103%
- Percent activity relative to 37iC. ([2]; 65 C): 92.5%
- Percent activity relative to 37iC. ([2]; 70 C): 37.7%
- Percent activity relative to 37iC. ([2]; 75 C): 0.7%
- activity retained ([2]; after a 20 minute incubation at 65 C, pH 7.5): 90%
